In patent publication US20220162310A1:

Biological target: human TIGIT-Fc antigen (human) (UniProt Q495A1)
Assay: ELISA on plate-coated human TIGIT-Fc (3 ug/ml), scFv from 80 nM in 1/3 steps, anti-His-HRP, OD450; value is C of the printed 4-P fit; the sheet prints no unit, nM from paragraph 123

Sequence of human TIGIT-Fc antigen (human) (Q495A1 22-141 T103A limits assumed): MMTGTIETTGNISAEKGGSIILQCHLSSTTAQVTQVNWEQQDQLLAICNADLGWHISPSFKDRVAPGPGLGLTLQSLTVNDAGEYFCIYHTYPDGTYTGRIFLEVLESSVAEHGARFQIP

EC50: 526 pM
B1: 1F10 (scFv-type anti-TIGIT antibody) (scFv, part only; not given: linker, domain order, His tag, V domains shown, not shown: another chain or arm of the molecule; small tags and cut ends)
VH: EVQLVESGGGLVKPGGSLRISCAASGFTFSNYNMIWVRQAPGKGLEWVSSISSSASYIYYADSVKGRFTISRDNAKNSLYLQMNSLRAEDTAVYYCARDEGSRDSWNNGPYYYSGMDVWGQGTTVTVSS
VL: AIQMTQSPSSLSASVGDRVTITCRASQSISRYLNWYQHKPGKAPKLLIYGASSLQSGVPSRFRGSGSGTDFTLTISSLQPEDFATYYCQQSYTTPGAFTFGGGTKVEIK
